Test results taken from the supplement of paper PMC10126150.
± gives the standard deviation of the averaged measurements.

Tested on: ATP
Assay: switch fluorescence ratio, 500 uM ATP over buffer (Cy3 cluster intensity, sum of 5 cycles each) (fold (ratio)); higher = stronger signal-on switching upon ATP binding; sequences stand for … in TCGTCGGCAGCGTCAGATGTGTATAAGAGACAGTTTTTTTTTTTTTTTTTTTTTTTTT…TC
Settings: aptamer strand: ATP DNA aptamer (quencher-CACCTGGGGGAGTATTGCGGAGGAAGG + anchor), 100 nM annealed; ATP concentration: 500 uM
Method in brief: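 Imaging in selection buffer was followed by imaging after 15 min with 500 uM ATP at 22 °C, for Cy3-labelled switching-strand clusters annealed to 100 nM quencher-labelled ATP aptamer on a modified Illumina MiSeq flow-cell. Five of these buffer/ATP cycles ran, separated by NaOH stripping and re-annealing. The fluorescence ratio per cluster is summed target-cycle over summed buffer-cycle Cy3 intensity, averaged per switch-domain sequence; clusters outside 100-1000 RFU were removed.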
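Also: ATP exposure 15 min at 22 °C before imaging.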

| Sequence | switch fluorescence ratio |
| --- | --- |
| GGAACGGGCT | 1 ± 0.021 |
| GGAACGGGGG | 1.02 ± 0.014 |
| GGAACGTGAG | 1.011 ± 0.0011 |
| GGAACTGGCG | 0.938 ± 0.094 |
| GGAACTTGTT | 0.99 ± 0.012 |
| GGAAGAAAAA | 1.01 ± 0.067 |
| GGAAGAAAAC | 1.008 ± 0.0045 |
| GGAAGAAGAT | 0.982 ± 0.033 |
| GGAAGAGAAC | 0.995 ± 0.017 |
| GGAAGATTCG | 0.984 ± 0.03 |
| GGAAGCTTCC | 1.127 ± 0.0032 |
| GGAAGGAGGA | 0.973 ± 0.015 |
| GGAAGGGATG | 1 ± 0.026 |
| GGAAGGGGCT | 1.08 ± 0.12 |
| GGAAGGGGGG | 1.01 ± 0.024 |
| GGAAGGTACG | 0.9856 ± 0.0062 |
| GGAAGGTTCG | 1.01 ± 0.033 |
| GGAAGTATTA | 0.966 ± 0.017 |
| GGAAGTGTGG | 1 ± 0.05 |
| GGAAGTGTGT | 0.949 ± 0.021 |
| GGAAGTTAGA | 0.9819 ± 0.0036 |
| GGAATAGGGG | 0.991 ± 0.018 |
| GGAATAGTGG | 0.982 ± 0.025 |
| GGAATATGTG | 0.998 ± 0.0093 |
| GGAATCATGG | 0.996 ± 0.046 |

| Sequence | switch fluorescence ratio |
| --- | --- |
| GGAATCATTT | 0.972 ± 0.015 |
| GGAATCGGAA | 1.02 ± 0.034 |
| GGAATCTGTT | 0.993 ± 0.068 |
| GGAATGAAGG | 1 ± 0.0041 |
| GGAATGGGGC | 0.993 ± 0.052 |
| GGAATGGGTA | 0.997 ± 0.027 |
| GGAATGTACG | 1 ± 0.041 |
| GGAATGTGTT | 0.972 ± 0.013 |
| GGAATTACAG | 1.02 ± 0.046 |
| GGAATTACCG | 1.031 ± 0.0025 |
| GGAATTAGGT | 0.9903 ± 0.0077 |
| GGAATTATAA | 0.99 ± 0.027 |
| GGAATTATCG | 0.98808 ± 0.00049 |
| GGAATTCTCC | 1.21 ± 0.03 |
| GGAATTTCTT | 1.01 ± 0.047 |
| GGAATTTGGC | 1.02 ± 0.052 |
| GGACAAACGT | 1.2 ± 0.052 |
| GGACAAACTC | 1.04 ± 0.036 |
| GGACAAGGGT | 1.02 ± 0.037 |
| GGACAATGGG | 0.985 ± 0.033 |
| GGACACCGGG | 1.04 ± 0.015 |
| GGACAGGCAT | 0.9852 ± 0.0091 |
| GGACAGTGAT | 1.01 ± 0.034 |
| GGACAGTGTA | 1.01 ± 0.02 |
| GGACCGTTTT | 0.998 ± 0.016 |

| Sequence | switch fluorescence ratio |
| --- | --- |
| GGACGATGGT | 1 ± 0.026 |
| GGACGCATGG | 1.33 ± 0.071 |
| GGACGGAGGT | 0.959 ± 0.038 |
| GGACGGGGGC | 1 ± 0.016 |
| GGACGGGGGT | 1.01 ± 0.038 |
| GGACGGTAGG | 0.979 ± 0.011 |
| GGACGTAAGG | 0.977 ± 0.016 |
| GGACGTTGAG | 0.985 ± 0.021 |
| GGACTATTTG | 1.003 ± 0.0011 |
| GGACTCAGAA | 0.9867 ± 0.0045 |
| GGACTCGCTC | 1.02 ± 0.018 |
| GGACTCGGGC | 0.985 ± 0.031 |
| GGACTGAAGT | 1.02 ± 0.038 |
| GGACTGGAAG | 1.19 ± 0.051 |
| GGACTTCCTG | 1.003 ± 0.0065 |
| GGACTTTTGT | 0.984 ± 0.02 |
| GGAGAAATCG | 1.06 ± 0.012 |
| GGAGAAATCT | 1.12 ± 0.022 |
| GGAGAATTAT | 0.991 ± 0.024 |
| GGAGACTGGT | 1.02 ± 0.063 |
| GGAGACTTTA | 1.006 ± 0.0056 |
| GGAGAGGGCG | 0.991 ± 0.066 |
| GGAGAGGGTT | 1.022 ± 0.0044 |
| GGAGATTGCG | 0.96 ± 0.046 |
| GGAGATTTGT | 1.01 ± 0.032 |

| Sequence | switch fluorescence ratio |
| --- | --- |
| GGAGATTTTT | 0.977 ± 0.044 |
| GGAGCAGCTG | 0.97336 ± 0.00053 |
| GGAGCAGGGA | 0.963 ± 0.025 |
| GGAGCCCCGA | 0.9814 ± 0.0076 |
| GGAGCGGGGA | 1 ± 0.084 |
| GGAGCTGCGG | 0.9914 ± 0.0038 |
| GGAGCTGGGA | 1.0097 ± 0.00033 |
| GGAGGAAATG | 0.949 ± 0.011 |
| GGAGGAAATT | 1.01 ± 0.082 |
| GGAGGATTTA | 0.984 ± 0.042 |
| GGAGGCACTG | 0.9996 ± 0.0095 |
| GGAGGGATCT | 0.966 ± 0.011 |
| GGAGGGATGG | 1.13 ± 0.2 |
| GGAGGGCGGG | 1.02 ± 0.021 |
| GGAGGGGAGG | 0.991 ± 0.029 |
| GGAGGGGATT | 0.982 ± 0.03 |
| GGAGGGGCAA | 1.24 ± 0.032 |
| GGAGGGGCGA | 1.1 ± 0.14 |
| GGAGGGGGAC | 3.13 ± 3.1 |
| GGAGGGGGAG | 0.9817 ± 0.0084 |
| GGAGGGTTAC | 0.972 ± 0.016 |
| GGAGGTGG | 0.942 ± 0.026 |
| GGAGGTGGTT | 0.981 ± 0.018 |
| GGAGGTGTTA | 1.01 ± 0.031 |
| GGAGGTTTAA | 1.01 ± 0.024 |
